Experimental findings from PMC4564187, “Pharmacokinetic and Pharmacodynamic Characterisation of an Anti-Mouse TNF Receptor 1 Domain Antibody Formatted for In Vivo Half-Life Extension” (PLoS ONE, 2015) are described below.

Experiment [1] has as its target T1, recombinant mouse sTNFR1 (mouse, UniProt P25118 30-212).
T1 construct: mouse TNF receptor 1 (TNFR1), soluble form; The methods call the protein amine-coupled to the CM5 chip only 'recombinant mouse TNFR1'; also called mouse TNFR1; mTNFR1; source: bought: R&D Systems (425-R1/CF)
T1 sequence (looked up): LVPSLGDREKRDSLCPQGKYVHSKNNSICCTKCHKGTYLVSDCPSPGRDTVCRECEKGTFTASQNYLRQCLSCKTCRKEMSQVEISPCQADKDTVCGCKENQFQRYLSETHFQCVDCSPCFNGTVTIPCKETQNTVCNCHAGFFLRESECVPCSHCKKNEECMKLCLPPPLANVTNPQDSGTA
As to the kind of experiment: SPR; Biacore T200, HBS-EP+, 25°C; mouse or human TNFR1 amine-coupled on CM5 chip; DMS5540 injected at 7 concentrations, 2-fold dilutions from 16 nM to 0.125 nM, 50 μl/min; 1:1 binding model. Particulars: both partners purified.

Experiment [2] deals with T1, recombinant mouse sTNFR1. As to the kind of experiment: cell-based or functional assay.

B1: DMS5540 (bispecific antibody)
chain: EVQLLESGGGLVQPGGSLRLSCAASGFTFNRYSMGWLRQAPGKGLEWVSRIDSYGRGTYYEDPVKGRFSISRDNSKNTLYLQMNSLRAEDTAVYYCAKISQFGSNAFDYWGQGTQVTVSSASTDIQMTQSPSSLSASVGDRVTITCRASRPIGTMLSWYQQKPGKAPKLLILFGSRLQSGVPSRFSGSGSGTDFTLTISSLQPEDFATYYCAQAGTHPTTFGQGTKVEIKR
notes: anti-mouse TNFR1 VH dAb DOM1m-21-23; three residue linker (Ala-Ser-Thr); About 25 kDa; two human single variable domains on one chain; also called mouse TNFR1 antagonist; genetic fusion of DOM1m-21-23 with the AlbudAb DOM7h-11-12; source: E. coli BL21(DE3) strain derivatives, purified from culture supernatant (Protein-A, cation exchange, SEC when necessary)
For the molecule B1, in experiment [1], the equilibrium dissociation constant (Kd) – broadly, the concentration at which binding is half-saturated – amounted to 0.27 nM; the koff – broadly, the rate constant with which the complex falls apart – worked out at 0.000217 s⁻¹; the association rate constant (kon) – broadly, a measure of how fast the partners come together – was determined as 798000 M⁻¹ s⁻¹. Also, in experiment [2], the “EC50 of inhibition of mouse TNF-α (20 pg/ml) induced cytotoxicity in mouse L929 cells” value is 1.3 nM.

B2: DOM1m-21-23 (antibody, V domains shown)
VH: EVQLLESGGGLVQPGGSLRLSCAASGFTFNRYSMGWLRQAPGKGLEWVSRIDSYGRGTYYEDPVKGRFSISRDNSKNTLYLQMNSLRAEDTAVYYCAKISQFGSNAFDYWGQGTQVTVSS
With B2, the “EC50 of inhibition of mouse TNF-α (20 pg/ml) induced cytotoxicity in mouse L929 cells” value in experiment [2] turned out to be 1.7 nM.
